Measurements as given in paper PMC12260392, “Expanding the diversity of bacterial DNA partitioning: A CTP-independent ParABS system for plasmid partitioning in Streptomyces” (Proceedings of the National Academy of Sciences of the …, 2025).

How the values were obtained:
[1] = tested on: ParT (G87P) (Streptomyces coelicolor A3(2) (plasmid SCP2)); test: BLI; details: BLI: 100 mM Tris-HCl pH 8, 150 mM NaCl, 1 mM MgCl2, 0.005% Tween-20, temperature not given; SPR at 4 C on Biacore 8K
[2] = biological target: T1, ParT (Streptomyces coelicolor A3(2) (plasmid SCP2)) (UniProt Q8VWE5); test: BLI; details: BLI: 100 mM Tris-HCl pH 8, 150 mM NaCl, 1 mM MgCl2, 0.005% Tween-20, temperature not given
T1 sequence: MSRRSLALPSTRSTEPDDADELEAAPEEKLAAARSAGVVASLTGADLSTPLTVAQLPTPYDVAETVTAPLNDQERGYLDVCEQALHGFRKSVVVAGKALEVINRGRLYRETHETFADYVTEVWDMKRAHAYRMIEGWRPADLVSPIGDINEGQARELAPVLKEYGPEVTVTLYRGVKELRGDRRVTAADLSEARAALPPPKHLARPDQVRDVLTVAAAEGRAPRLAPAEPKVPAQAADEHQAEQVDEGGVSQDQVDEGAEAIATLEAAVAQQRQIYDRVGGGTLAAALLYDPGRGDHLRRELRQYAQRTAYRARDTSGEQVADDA

[3] = biological target: T1, ParT (Streptomyces coelicolor A3(2) (plasmid SCP2)); test: SPR; details: 4 C; kinetics; DNA fragment assumed as in BLI; BLI: 100 mM Tris-HCl pH 8, 150 mM NaCl, 1 mM MgCl2, 0.005% Tween-20, temperature not given; SPR at 4 C on Biacore 8K
ParT [4] = biological target: T2, ParT (Streptomyces coelicolor A3(2) (plasmid …, UniProt Q8VWE5 1-325)); test: BLI; no NTP; equilibrium analysis; BLI: 100 mM Tris-HCl pH 8, 150 mM NaCl, 1 mM MgCl2, 0.005% Tween-20, temperature not given; SPR at 4 C on Biacore 8K; details: protein: recombinant; tags: C-terminal His6; chain copies: 2; label: 5' biotin on strand 1 (BLI); blunt
T2 sequence: T1 sequence

ParT [5] = biological target: T2, ParT; test: BLI; up to 2 uM ParT; BLI: 100 mM Tris-HCl pH 8, 150 mM NaCl, 1 mM MgCl2, 0.005% Tween-20, temperature not given; SPR at 4 C on Biacore 8K; details: protein: recombinant; tags: C-terminal His6; chain copies: 2; label: 5' biotin on strand 1 (BLI); blunt
[6] = biological target: ParA-His6, ParA of plasmid SCP2 (Streptomyces coelicolor)
[7] = biological target: the molecule itself; test: not stated; apo-ParT in solution (SI Appendix, Fig. S8A); the method is not told in the main text

In the case of 180-bp parS DNA cut with BamHI or EcoRI, the binding signal (fraction of closed-loop signal) [1] is reported as 1 and the binding signal (fraction of closed-loop signal) ([2]; 1 uM ParT, free DNA end by BamHI or EcoRI, SPR at 4 C on Biacore …) is reported as 0.2.

40-bp parS+10 duplex was tested, and the Kd ([2]; no NTP, equilibrium analysis, SPR at 4 C on Biacore 8K) was 580 nM and the Kd [3] was 730 nM.

B1: 40-bp parS duplex (dsDNA)
DNA 1: GGCCGACCTCGTGTCTCCAATTGGAGACATCAACGAGGGC
DNA 2: GCCCTCGTTGATGTCTCCAATTGGAGACACGAGGTCGGCC
Molecule B1 has a Kd (ParT [4]) of 680 ± 200 nM.

B2: 40-bp scrambled parS duplex (dsDNA)
DNA 1: ATCGGGCACCTTAGGGCAATCGTAAGTTCGGCGCACGACC
DNA 2: GGTCGTGCGCCGAACTTACGATTGCCCTAAGGTGCCCGAT
B2: no binding (ParT [5]).

B3: biotinylated ParT (WT), ParB-like protein of plasmid SCP2 (natural protein)
chain: T1 sequence
modifications: biotin (site and way of biotinylation not stated)
For B3, the ATPase activity of 0.5 µM ParA with ATP, nonspecific DNA and ParT in increasing molar excess (ATP/ParA/hour) [6] was 6.

B4: ParT (WT), purified, unlabelled (natural protein, Streptomyces coelicolor, UniProt Q8VWE5 1-325, looked up)
chain: T1 sequence
notes: ParT (SCP2.04c), ParB-like protein encoded on plasmid SCP2 of Streptomyces coelicolor, UniProt Q8VWE5; the rows with itself tell the dimer; also called apo-ParT; SCP2.04c; source: purified
For B4, the “stoichiometry N” value [7] was 2.
